Experimental findings from article PMC4869107, “In vitro flow cytometry-based screening platform for cellulase engineering” (Scientific Reports, 2016) are described below.

This data set has as its system T1, Cc1cc(=O)oc2cc(O[C@@H]3O[C@H](CO)[C@@H](O[C@@H]4O[C@H](CO)[C@@H](O)[C@H](O)[C@H]4O)[C@H](O)[C@H]3O)ccc12.
T1 construct: 604 residues, ~69 kDa; expressed in E. coli BL21 Gold (DE3)
As to the kind of experiment: purified protein. As to conditions: potassium phosphate pH 7.2, 30 °C (general assay; kinetics by cited protocol). In kind it is biochemical, uncultured bacterium.
For orientation: kcat means the number of substrate molecules converted per active site and unit of time at saturation. One may read the kcat/Km as the second-order rate constant that governs catalysis at low substrate concentration. “CelA2 (CelA2-WT) (uncultured bacterium; H288F/N273D/N468S)”: the Km is recorded as 9.66 (±1.19) μM, the kcat came to 0.0253 ± 0.000767 s⁻¹ and the kcat/Km came out at 2620 M⁻¹ s⁻¹.
On the same counts, the results for CelA2 (CelA2-WT) (uncultured bacterium) are 48.37 (±2.43) μM, 0.00183 ± 0.00035 s⁻¹ and 33.3 M⁻¹ s⁻¹.
For “CelA2 (CelA2-WT) (uncultured bacterium; H288F)” the same measures were 8.95 (±1.62) μM, 0.00833 ± 0.000367 s⁻¹ and 933 M⁻¹ s⁻¹.
